# Molecular target: T1, IL-1β (UniProt P01584 117-269)
# T1 construct: Antigen immobilised on the Biacore chip
# Assay: Biacore, periplasmic extract
Binder,binding result,fold difference in affinity vs original [fold]
"XPA23 light chain A51I (Fab, V domains shown) VH: EVQLLESGGGLVQPGGSLRLSCAASGFTFSKYFMFWVRQAPGKGLEWVSVISPSGGMTRYADSVKGRFTISRDNSKNTLYLQMNSLRAEDTAVYYCARVGYGGNSDYWGQGTLVTVSS VL: DIQMTQSPSSVSASVGDRLTIICRASQDINRWLAWYQQTPGNAPKLLIHSITSLQSGVPSRFSGSGSGTDFTLTINSLQPEDFATYYCQQADSFPLTFGGGTKVEIK",no binding,
"XPA23 light chain A51P (Fab, V domains shown) VH: EVQLLESGGGLVQPGGSLRLSCAASGFTFSKYFMFWVRQAPGKGLEWVSVISPSGGMTRYADSVKGRFTISRDNSKNTLYLQMNSLRAEDTAVYYCARVGYGGNSDYWGQGTLVTVSS VL: DIQMTQSPSSVSASVGDRLTIICRASQDINRWLAWYQQTPGNAPKLLIHSPTSLQSGVPSRFSGSGSGTDFTLTINSLQPEDFATYYCQQADSFPLTFGGGTKVEIK",,0.13
"XPA23 light chain A91R (Fab, V domains shown) VH: EVQLLESGGGLVQPGGSLRLSCAASGFTFSKYFMFWVRQAPGKGLEWVSVISPSGGMTRYADSVKGRFTISRDNSKNTLYLQMNSLRAEDTAVYYCARVGYGGNSDYWGQGTLVTVSS VL: DIQMTQSPSSVSASVGDRLTIICRASQDINRWLAWYQQTPGNAPKLLIHSATSLQSGVPSRFSGSGSGTDFTLTINSLQPEDFATYYCQQRDSFPLTFGGGTKVEIK",no binding,
"XPA23 light chain D28A (Fab, V domains shown) VH: EVQLLESGGGLVQPGGSLRLSCAASGFTFSKYFMFWVRQAPGKGLEWVSVISPSGGMTRYADSVKGRFTISRDNSKNTLYLQMNSLRAEDTAVYYCARVGYGGNSDYWGQGTLVTVSS VL: DIQMTQSPSSVSASVGDRLTIICRASQAINRWLAWYQQTPGNAPKLLIHSATSLQSGVPSRFSGSGSGTDFTLTINSLQPEDFATYYCQQADSFPLTFGGGTKVEIK",,0.88
"XPA23 light chain A91S (Fab, V domains shown) VH: EVQLLESGGGLVQPGGSLRLSCAASGFTFSKYFMFWVRQAPGKGLEWVSVISPSGGMTRYADSVKGRFTISRDNSKNTLYLQMNSLRAEDTAVYYCARVGYGGNSDYWGQGTLVTVSS VL: DIQMTQSPSSVSASVGDRLTIICRASQDINRWLAWYQQTPGNAPKLLIHSATSLQSGVPSRFSGSGSGTDFTLTINSLQPEDFATYYCQQSDSFPLTFGGGTKVEIK",,0.9
"XPA23 light chain A91W (Fab, V domains shown) VH: EVQLLESGGGLVQPGGSLRLSCAASGFTFSKYFMFWVRQAPGKGLEWVSVISPSGGMTRYADSVKGRFTISRDNSKNTLYLQMNSLRAEDTAVYYCARVGYGGNSDYWGQGTLVTVSS VL: DIQMTQSPSSVSASVGDRLTIICRASQDINRWLAWYQQTPGNAPKLLIHSATSLQSGVPSRFSGSGSGTDFTLTINSLQPEDFATYYCQQWDSFPLTFGGGTKVEIK",no binding,
"XPA23 light chain A91N (Fab, V domains shown) VH: EVQLLESGGGLVQPGGSLRLSCAASGFTFSKYFMFWVRQAPGKGLEWVSVISPSGGMTRYADSVKGRFTISRDNSKNTLYLQMNSLRAEDTAVYYCARVGYGGNSDYWGQGTLVTVSS VL: DIQMTQSPSSVSASVGDRLTIICRASQDINRWLAWYQQTPGNAPKLLIHSATSLQSGVPSRFSGSGSGTDFTLTINSLQPEDFATYYCQQNDSFPLTFGGGTKVEIK",,0.1
"XPA23 light chain A51V (Fab, V domains shown) VH: EVQLLESGGGLVQPGGSLRLSCAASGFTFSKYFMFWVRQAPGKGLEWVSVISPSGGMTRYADSVKGRFTISRDNSKNTLYLQMNSLRAEDTAVYYCARVGYGGNSDYWGQGTLVTVSS VL: DIQMTQSPSSVSASVGDRLTIICRASQDINRWLAWYQQTPGNAPKLLIHSVTSLQSGVPSRFSGSGSGTDFTLTINSLQPEDFATYYCQQADSFPLTFGGGTKVEIK",,0.31
"XPA23 light chain A51L (Fab, V domains shown) VH: EVQLLESGGGLVQPGGSLRLSCAASGFTFSKYFMFWVRQAPGKGLEWVSVISPSGGMTRYADSVKGRFTISRDNSKNTLYLQMNSLRAEDTAVYYCARVGYGGNSDYWGQGTLVTVSS VL: DIQMTQSPSSVSASVGDRLTIICRASQDINRWLAWYQQTPGNAPKLLIHSLTSLQSGVPSRFSGSGSGTDFTLTINSLQPEDFATYYCQQADSFPLTFGGGTKVEIK",,0.16
"XPA23 light chain A91F (Fab, V domains shown) VH: EVQLLESGGGLVQPGGSLRLSCAASGFTFSKYFMFWVRQAPGKGLEWVSVISPSGGMTRYADSVKGRFTISRDNSKNTLYLQMNSLRAEDTAVYYCARVGYGGNSDYWGQGTLVTVSS VL: DIQMTQSPSSVSASVGDRLTIICRASQDINRWLAWYQQTPGNAPKLLIHSATSLQSGVPSRFSGSGSGTDFTLTINSLQPEDFATYYCQQFDSFPLTFGGGTKVEIK",no binding,
"XPA23 light chain A51T (Fab, V domains shown) VH: EVQLLESGGGLVQPGGSLRLSCAASGFTFSKYFMFWVRQAPGKGLEWVSVISPSGGMTRYADSVKGRFTISRDNSKNTLYLQMNSLRAEDTAVYYCARVGYGGNSDYWGQGTLVTVSS VL: DIQMTQSPSSVSASVGDRLTIICRASQDINRWLAWYQQTPGNAPKLLIHSTTSLQSGVPSRFSGSGSGTDFTLTINSLQPEDFATYYCQQADSFPLTFGGGTKVEIK",,0.76
"XPA23 light chain A91D (Fab, V domains shown) VH: EVQLLESGGGLVQPGGSLRLSCAASGFTFSKYFMFWVRQAPGKGLEWVSVISPSGGMTRYADSVKGRFTISRDNSKNTLYLQMNSLRAEDTAVYYCARVGYGGNSDYWGQGTLVTVSS VL: DIQMTQSPSSVSASVGDRLTIICRASQDINRWLAWYQQTPGNAPKLLIHSATSLQSGVPSRFSGSGSGTDFTLTINSLQPEDFATYYCQQDDSFPLTFGGGTKVEIK",,1.08
"XPA23 light chain A91Y (Fab, V domains shown) VH: EVQLLESGGGLVQPGGSLRLSCAASGFTFSKYFMFWVRQAPGKGLEWVSVISPSGGMTRYADSVKGRFTISRDNSKNTLYLQMNSLRAEDTAVYYCARVGYGGNSDYWGQGTLVTVSS VL: DIQMTQSPSSVSASVGDRLTIICRASQDINRWLAWYQQTPGNAPKLLIHSATSLQSGVPSRFSGSGSGTDFTLTINSLQPEDFATYYCQQYDSFPLTFGGGTKVEIK",no binding,
"XPA23 light chain A51S (Fab, V domains shown) VH: EVQLLESGGGLVQPGGSLRLSCAASGFTFSKYFMFWVRQAPGKGLEWVSVISPSGGMTRYADSVKGRFTISRDNSKNTLYLQMNSLRAEDTAVYYCARVGYGGNSDYWGQGTLVTVSS VL: DIQMTQSPSSVSASVGDRLTIICRASQDINRWLAWYQQTPGNAPKLLIHSSTSLQSGVPSRFSGSGSGTDFTLTINSLQPEDFATYYCQQADSFPLTFGGGTKVEIK",,0.95
"XPA23 light chain A51R (Fab, V domains shown) VH: EVQLLESGGGLVQPGGSLRLSCAASGFTFSKYFMFWVRQAPGKGLEWVSVISPSGGMTRYADSVKGRFTISRDNSKNTLYLQMNSLRAEDTAVYYCARVGYGGNSDYWGQGTLVTVSS VL: DIQMTQSPSSVSASVGDRLTIICRASQDINRWLAWYQQTPGNAPKLLIHSRTSLQSGVPSRFSGSGSGTDFTLTINSLQPEDFATYYCQQADSFPLTFGGGTKVEIK",,0.18
"XPA23 light chain A51Y (Fab, V domains shown) VH: EVQLLESGGGLVQPGGSLRLSCAASGFTFSKYFMFWVRQAPGKGLEWVSVISPSGGMTRYADSVKGRFTISRDNSKNTLYLQMNSLRAEDTAVYYCARVGYGGNSDYWGQGTLVTVSS VL: DIQMTQSPSSVSASVGDRLTIICRASQDINRWLAWYQQTPGNAPKLLIHSYTSLQSGVPSRFSGSGSGTDFTLTINSLQPEDFATYYCQQADSFPLTFGGGTKVEIK",,0.45
"XPA23 light chain A91Q (Fab, V domains shown) VH: EVQLLESGGGLVQPGGSLRLSCAASGFTFSKYFMFWVRQAPGKGLEWVSVISPSGGMTRYADSVKGRFTISRDNSKNTLYLQMNSLRAEDTAVYYCARVGYGGNSDYWGQGTLVTVSS VL: DIQMTQSPSSVSASVGDRLTIICRASQDINRWLAWYQQTPGNAPKLLIHSATSLQSGVPSRFSGSGSGTDFTLTINSLQPEDFATYYCQQQDSFPLTFGGGTKVEIK",no binding,
"XPA23 light chain A91E (Fab, V domains shown) VH: EVQLLESGGGLVQPGGSLRLSCAASGFTFSKYFMFWVRQAPGKGLEWVSVISPSGGMTRYADSVKGRFTISRDNSKNTLYLQMNSLRAEDTAVYYCARVGYGGNSDYWGQGTLVTVSS VL: DIQMTQSPSSVSASVGDRLTIICRASQDINRWLAWYQQTPGNAPKLLIHSATSLQSGVPSRFSGSGSGTDFTLTINSLQPEDFATYYCQQEDSFPLTFGGGTKVEIK",,0.1
"XPA23 light chain A91H (Fab, V domains shown) VH: EVQLLESGGGLVQPGGSLRLSCAASGFTFSKYFMFWVRQAPGKGLEWVSVISPSGGMTRYADSVKGRFTISRDNSKNTLYLQMNSLRAEDTAVYYCARVGYGGNSDYWGQGTLVTVSS VL: DIQMTQSPSSVSASVGDRLTIICRASQDINRWLAWYQQTPGNAPKLLIHSATSLQSGVPSRFSGSGSGTDFTLTINSLQPEDFATYYCQQHDSFPLTFGGGTKVEIK",,1.12
"XPA23 light chain A51N (Fab, V domains shown) VH: EVQLLESGGGLVQPGGSLRLSCAASGFTFSKYFMFWVRQAPGKGLEWVSVISPSGGMTRYADSVKGRFTISRDNSKNTLYLQMNSLRAEDTAVYYCARVGYGGNSDYWGQGTLVTVSS VL: DIQMTQSPSSVSASVGDRLTIICRASQDINRWLAWYQQTPGNAPKLLIHSNTSLQSGVPSRFSGSGSGTDFTLTINSLQPEDFATYYCQQADSFPLTFGGGTKVEIK",,0.3
"XPA23 light chain A51W (Fab, V domains shown) VH: EVQLLESGGGLVQPGGSLRLSCAASGFTFSKYFMFWVRQAPGKGLEWVSVISPSGGMTRYADSVKGRFTISRDNSKNTLYLQMNSLRAEDTAVYYCARVGYGGNSDYWGQGTLVTVSS VL: DIQMTQSPSSVSASVGDRLTIICRASQDINRWLAWYQQTPGNAPKLLIHSWTSLQSGVPSRFSGSGSGTDFTLTINSLQPEDFATYYCQQADSFPLTFGGGTKVEIK",,0.24
"XPA23 light chain A51Q (Fab, V domains shown) VH: EVQLLESGGGLVQPGGSLRLSCAASGFTFSKYFMFWVRQAPGKGLEWVSVISPSGGMTRYADSVKGRFTISRDNSKNTLYLQMNSLRAEDTAVYYCARVGYGGNSDYWGQGTLVTVSS VL: DIQMTQSPSSVSASVGDRLTIICRASQDINRWLAWYQQTPGNAPKLLIHSQTSLQSGVPSRFSGSGSGTDFTLTINSLQPEDFATYYCQQADSFPLTFGGGTKVEIK",,0.24

# Source: patent publication US20110118131A1 (published 2011)
